Source: US20120316071A1 (published 2012)

What was measured:
[1] = molecular target: T1, rHuman HGF R/c-MET/Fc Chimera, CF (R&D Systems Cat#358-MT/CF) (human, UniProt P08581 25-932); assay: ECL Multispot (MSD) assay, antigen spotted on plate, 10 nM Fab; blank spot of this row 472
T1 construct: Bought reagent; also called HGF R/Fc; hepatocyte growth factor receptor; Fc part of the bought chimera not given

[2] = molecular target: T2, rHuman Erythropoietin R/Fc Chimera, CF (R&D Systems Cat#963-ER) (human, UniProt P19235 25-250); assay: as above
T2 construct: Bought reagent; also called EPO R; EPO R/Fc; Fc part of the bought chimera not given
T2 sequence (looked up): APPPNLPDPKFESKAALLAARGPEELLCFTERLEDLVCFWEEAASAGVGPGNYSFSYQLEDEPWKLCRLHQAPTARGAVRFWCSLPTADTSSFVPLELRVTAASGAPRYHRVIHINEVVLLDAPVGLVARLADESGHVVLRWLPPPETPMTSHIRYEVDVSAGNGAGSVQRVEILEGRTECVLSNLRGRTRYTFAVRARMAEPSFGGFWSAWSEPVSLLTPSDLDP

[3] = molecular target: T3, rHuman CD44/Fc Chimera, CF (R&D Systems Cat#3660-CD) (human, UniProt P16070 21-220); assay: as above
T3 construct: Bought reagent; Fc part of the bought chimera not given

[4] = molecular target: T4, rHuman EGF R/Fc Chimera, CF (R&D Systems Cat#344-ER) (human, UniProt P00533 25-645); assay: as above
T4 construct: Bought reagent; also called epidermal growth factor receptor; Fc part of the bought chimera not given

[5] = molecular target: T5, rHuman P-Cadherin/Fc Chimera, CF (R&D Systems Cat#861-PC) (human, UniProt P22223 108-654); assay: as above
T5 construct: Bought reagent; Fc part of the bought chimera not given

[6] = molecular target: T6, rHuman Notch-1/Fc Chimera, CF (R&D Systems Cat#3647-TK) (human, UniProt P46531 19-526); assay: as above
T6 construct: Bought reagent; Fc part of the bought chimera not given

[7] = molecular target: T7, rHuman IGF-1 sR, CF (R&D Systems Cat#391-GR) (human, UniProt P08069 31-932); assay: as above
T7 construct: Bought soluble receptor; The column head prints only 'IGF-1'; also called insulin-like growth factor-1 soluble receptor

[8] = molecular target: T8, rHuman ErbB2/Fc Chimera, CF (R&D Systems Cat#1129-ER) (human, UniProt P04626 23-652); assay: as above
T8 construct: Bought reagent; also called human epidermal growth factor 2 receptor; Fc part of the bought chimera not given

[9] = molecular target: T9, Recombinant Human DLL4 (R&D Systems Cat#1506-D4/CF) (human, UniProt Q9NR61 27-524); assay: MSD Multispot ECL, antigen spotted on plate, Fab at 7.5 nM; blank spot 217
T9 construct: Bought recombinant protein; also called rHuman DLL4; delta-like protein 4

[10] = molecular target: T10, rHuman CD44/Fc Chimera, CF (R&D Systems Cat#3660-CD) (human, UniProt P16070 21-220); assay: as above
T10 construct: Bought Fc chimera; Fc part of the bought chimera not given

[11] = molecular target: T11, rHuman Erythropoietin R/Fc Chimera, CF (R&D Systems Cat#963-ER) (human, UniProt P19235 25-250); assay: as above
T11 construct: Bought Fc chimera; also called EPO R/Fc; Epo R; Fc part of the bought chimera not given
T11 sequence (looked up): T2 sequence (looked up)

[12] = molecular target: T12, rHuman P-Cadherin/Fc Chimera, CF (R&D Systems Cat#861-PC) (human, UniProt P22223 108-654); assay: MSD multispot ECL, antigen spotted on plate, Fab 705 nM; blank spot 483
T12 construct: Bought from R&D Systems; not shown: Fc of the bought chimera

[13] = molecular target: T13, Recombinant Human DLL4 (R&D Systems Cat#1506-D4/CF) (human, UniProt Q9NR61 27-524); assay: as above
T13 construct: Bought from R&D Systems; also called rHuman DLL4; delta-like protein 4

[14] = molecular target: T14, rHuman CD44/Fc Chimera, CF (R&D Systems Cat#3660-CD) (human, UniProt P16070 21-220); assay: as above
T14 construct: Bought from R&D Systems; not shown: Fc of the bought chimera

[15] = molecular target: T15, rHuman HGF R/c-MET/Fc Chimera, CF (R&D Systems Cat#358-MT/CF) (human, UniProt P08581 25-932); assay: as above
T15 construct: Bought from R&D Systems; also called HGF R/Fc; hepatocyte growth factor receptor (HGF R/c-Met); not shown: Fc of the bought chimera

[16] = molecular target: T16, rHuman ErbB2/Fc Chimera, CF (R&D Systems Cat#1129-ER) (human, UniProt P04626 23-652); assay: as above
T16 construct: Bought from R&D Systems; also called human epidermal growth factor 2 receptor (ErbB2); not shown: Fc of the bought chimera

[17] = molecular target: T17, rHuman Notch-1/Fc Chimera, CF (R&D Systems Cat#3647-TK) (human, UniProt P46531 19-526); assay: as above
T17 construct: Bought from R&D Systems; not shown: Fc of the bought chimera

[18] = molecular target: T18, rHuman Erythropoietin R/Fc Chimera, CF (R&D Systems Cat#963-ER) (human, UniProt P19235 25-250); assay: as above
T18 construct: Bought from R&D Systems; also called EPO R/Fc; Epo R/Fc chimera; not shown: Fc of the bought chimera
T18 sequence (looked up): T2 sequence (looked up)

B1: Fab VH1-46_IGHD6-6*01_IGHJ1*01 S102A/S103P/S104F (APF) & L6_IGKJ1*01 (Fab, V domains shown)
VH: QVQLVQSGAEVKKPGASVKVSCKASGYTFTSYYMHWVRQAPGQGLEWMGIINPSGGSTSYAQKFQGRVTMTRDTSTSTVYMELSSLRSEDTAVYYCAREEYAPFSAEYFQHWGQGTLVTVSS
VL: not shown
notes: Tested as a Fab made in E. coli; also called H:APF & L:wt; APF triple mutant
B1 gave an ECL signal [1] of 426, an ECL signal [2] of 480 and an ECL signal [3] of 400. It also gave an ECL signal [4] of 428, an ECL signal [5] of 433 and an ECL signal [6] of 299. The ECL signal [7] was 434 and the ECL signal [8] was 391.

B2: Fab VH6-1_IGHD3-3*01_IGHJ4*01 & V4-3_IGLJ4*01 (Fab, V domains shown)
VH: QVQLQQSGPGLVKPSQTLSLTCAISGDSVSSNSAAWNWIRQSPSRGLEWLGRTYYRSKWYNDYAVSVKSRITINPDTSKNQFSLQLNSVTPEDTAVYYCAREYYDFWSGYYTDYFDYWGQGTLVTVSS
VL: QPVLTQPTSLSASPGASARLTCTLRSGINLGSYRIFWYQQKPESPPRYLLSYYSDSSKHQGSGVPSRFSGSKDASSNAGILVISGLQSEDEADYYCMIWHSSASFVFGGGTQLIIL
notes: Tested as a purified germline Fab made in E. coli; The VH was cloned into plasmid A (CH1 constant region, His6 and Flag tags) and the lambda VL into plasmid E (lambda CL)
B2 was tested, and the ECL signal [9] was 598, the ECL signal [10] was 444 and the ECL signal [11] was 443.

B3: Fab VH1-46_IGHD3-10*01_IGHJ4*01 & B3_IGKJ1*01 (Fab, V domains shown)
VH: QVQLVQSGAEVKKPGASVKVSCKASGYTFTSYYMHWVRQAPGQGLEWMGIINPSGGSTSYAQKFQGRVTMTRDTSTSTVYMELSSLRSEDTAVYYCAREYYYGSGSYYNDYFDYWGQGTLVTVSS
VL: not shown
notes: Tested as a Fab made in E. coli; VH was cloned into Plasmid A (CH1 constant region, His6 and Flag tags); The kappa VL was cloned into Plasmid C (kappa CL)
B3 showed an ECL signal [12] of 827, an ECL signal [13] of 981 and an ECL signal [14] of 693. The ECL signal [15] was 839, the ECL signal [16] was 671 and the ECL signal [17] was 958. The ECL signal [18] was 4890.
